The labels stand for the following.
T1: human iRhom2, endogenously expressed (human, UniProt Q6PJF5 1-856)
T1 construct: also called RHBDF2
T1 sequence: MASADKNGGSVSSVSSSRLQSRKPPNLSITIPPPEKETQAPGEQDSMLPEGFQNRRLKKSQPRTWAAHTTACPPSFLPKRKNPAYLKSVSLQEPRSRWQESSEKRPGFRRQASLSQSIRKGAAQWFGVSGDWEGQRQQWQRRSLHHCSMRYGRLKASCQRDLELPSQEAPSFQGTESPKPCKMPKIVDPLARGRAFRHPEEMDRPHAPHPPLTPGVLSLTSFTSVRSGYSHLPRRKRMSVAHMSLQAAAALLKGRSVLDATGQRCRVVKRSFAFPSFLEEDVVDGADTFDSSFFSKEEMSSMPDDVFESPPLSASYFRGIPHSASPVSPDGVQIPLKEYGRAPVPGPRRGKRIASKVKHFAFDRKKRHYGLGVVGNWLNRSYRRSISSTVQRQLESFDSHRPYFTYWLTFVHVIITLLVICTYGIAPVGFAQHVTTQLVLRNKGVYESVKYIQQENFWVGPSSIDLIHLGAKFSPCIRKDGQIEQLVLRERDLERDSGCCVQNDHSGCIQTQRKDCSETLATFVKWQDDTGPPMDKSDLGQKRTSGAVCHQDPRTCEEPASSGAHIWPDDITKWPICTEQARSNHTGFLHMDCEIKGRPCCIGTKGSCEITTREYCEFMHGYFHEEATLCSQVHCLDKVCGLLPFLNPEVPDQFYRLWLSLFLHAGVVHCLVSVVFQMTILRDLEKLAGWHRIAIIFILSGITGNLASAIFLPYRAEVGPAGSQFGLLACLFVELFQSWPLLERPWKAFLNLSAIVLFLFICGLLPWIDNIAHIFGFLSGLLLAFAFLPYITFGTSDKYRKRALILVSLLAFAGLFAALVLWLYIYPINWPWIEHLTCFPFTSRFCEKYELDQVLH

B1: antibody 16 (antibody, V domains shown)
VH: QVTLKESGPGILQPSQTLSLTCSFSGFSLSTFALGVGWIRQPSGRGLEWLAHIWWDDDKYYNPALKSRLTISKDTSKNHVFLKIANVDTADTATYYCARITTYYYGMDYWGQGTSVTVSS
VL: DIVLSQSPATLSVTPGDSVSLFCRASQSIGNHLHWYQQESHASPRLLIKYASQSISGIPSRFSGSGSGTDFTLSINSVETEDFGMYFCQQSYNWPLTFGAGTKLELK
notes: mouse IgG, kappa light chain; also called clone #16; purified antibody 16
B2: antibody 3 (antibody, V domains shown)
VH: QVTLKESGPGILQPSQTLSLTCSFSGFSLTTFAMGIGWVRQPSGKGLEWLAHIWWDGEKYNNPVLKSRLTISKDTSKNQVFLRIANVDTPDTATYYCARISSIYYIIDNWGQGTSVTVSS
VL: DIVLTQSPATLSVTPGHSVSLSCRASQSISNNLHWYQKKSHESPRLLIKYVSQSISGIPSRFSGSGSGTDFTLSINSVETEDFGMYFCQQSYNWPLTFGAGTKLELK
notes: mouse IgG, kappa light chain; also called clone #3; purified antibody 3
B3: antibody 5 (antibody, V domains shown)
VH: QVTLKESGPGILQPSQTLSLTCSFSGFSLSTFGMGVGWIRQPSGKGLEWLAHIWWDDEKYYNSALKSRLTISKATSKNQAFLKIANVDTADTATYYCARISNYGSNYWYFNVWGTGTTVTVSS
VL: QVVLTQSPALMSASPGEKVTMTCSAGSSVSCMYWYQQKPGSSPRVLIYDTSNLASGVPARFTGSGSGTSYSLTISRMEAEDAASYYCQQWNSYPLTFGAGTKLELK
notes: mouse IgG, kappa light chain; also called clone #5; purified antibody 5
B4: antibody 42 (antibody, V domains shown)
VH: QVTLKESGPGILQPSQTLSLTCSLSGFSLSTFGRGVGWIRQPSGKGLEWLAHIWWDDEKYYNPALKSRLTISKDTSKNQVFLRIANVDTADTATYYCARIQNYGSNYWYFDVWGTGTTVTVSS
VL: LIVLTQSPAIMSASPGEKVTMTCGATSRISYMFWYQQKPGSSPRVLIYDTSNLASGVPVRFSGSGSGTSYSLTISRVEAEDVATYYCQQWNSYPLTFGAGTKLELK
notes: mouse IgG, kappa light chain; also called clone #42; purified antibody 42
B5: antibody 43 (antibody, V domains shown)
VH: QVALKESGPGILQPSQTLSLTCSFSGFSLSTFGMGVGWIRQSSGKGLEWLANIWWDDDKYYNPALKSRLTISKDASKNQAFLKIANVDTADTATYYCARIGNYGSNYWYFDVWGTGTTVTVSS
VL: QIVLTQSPAIMSASPGERVTMTCSANSRISYMYWYQQKPGSSPRLLIYDTSNLASGVPVRFSGSGSGTSYSLTISRMEAEDAATYNCQQWSSYPLTFGAGTKLELK
notes: mouse IgG, kappa light chain; also called clone #43; purified antibody 43
B6: antibody 44 (antibody, V domains shown)
VH: QVTLKESGPGILQPSQTLSLTCSFSGFSLSTFGMGVGWIRQPSEKGLEWLAHIWWDDDKYYNPALKSRLTISKDTSKNQIFLKITNVDTAETATYYCSRIGNYGSNYWYFDVWGTGTTVTVSS
VL: QIVLTQSPAVMSASPGEKVTMTCTASSSVYYMYWYQQTPGSSPRLLIYDTSNLASGVPVRFSGSGSGTSYSLTISRMEAEDAATYYCQQWNTYPLTFGAGTKLELK
notes: mouse IgG, kappa light chain; also called clone #44; purified antibody 44
B7: antibody 22 (antibody, V domains shown)
VH: QVTLKESGPGILQPSQTLSLTCSFSGFSLSTFGMGVGWIRQPSGKGLEWLAHIWWDDEKYYNSALKSRLTISKATSKNQVFLKIANVDTADTATYYCARISNYGSNYWYFNVWGTGTTVTVSS
VL: QVVLTQSPALMSASPGEKVTMTCSAGSSVSYMYWYQQKPGSSPRVLIYDTSNLASGVPARFTGSGSGTSYSLTISRMEAEDAATYYCQQWNSYPLTFGAGTKLELK
notes: mouse IgG, kappa light chain; also called clone #22; purified antibody 22
B8: antibody 48 (antibody, V domains shown)
VH: QVQLQQSGTELVRPGTSVKVSCKASGYAFTNYLIEWVKQRPGQGLEWIGVINPGSGFTKYNEKFKGKATLTADKSSSTVYMHLSSLTSEDSAVYFCARGLYRAMDYWGQGTSVTVSS
VL: DIQMTQSPASQSASLGESVTITCLASQTIATWLAWYQQKPGKSPQLLIYGATTLADGVPSRFSGGGSGTKFSFKISSLQAEDFVSYYCQQLYSTPYTFGGGTKLEIK
notes: mouse IgG, kappa light chain; also called clone #48; purified antibody 48
B9: antibody 50 (antibody, V domains shown)
VH: QVQLQQSGAELVRPGASVKVSCKASGYAFSNYLIEWVKQRPGQGLEWIGVINPGSGFTKYNEKFKGKATLTADKSSSTAYMQLSSLTSEDSAVYFCARGLYRAMDYWGQGTSVTVSS
VL: DIQMTQSPASQSASLGESVTITCLASQTIGTWLAWYQQKPGKSPQLLIYAAASLADGVPSRFSGGGSGTKFSFKISSLQAEDFVNYYCQQIYSTPYTFGGGTKLEIK
notes: mouse IgG, kappa light chain; also called clone #50; purified antibody 50
B10: antibody 34 (antibody, V domains shown)
VH: QVTLKESGPGILQPSQTLSLTCSFSGFSLSTFSLGVGWIRQSSGKGLEWLAHIWWDDEKYYNPALKSRLTISKDTSKNQVFLKIANVDAADTATYYCARAYYSKSYYALDYWGQGTSVTVSS
VL: DIQMTQSPSSLSASLGERVSLTCRASQEISGYLSWLQQKPDGTIKRLIYAASTLDSGVPKRFSGSRSGSDYSLAISSLESEDFADYYCLQYANFPFTFGSGTKLEIK
notes: mouse IgG, kappa light chain; also called clone #34; purified antibody 34

By Kd is commonly meant the constant that tells how readily two partners part at equilibrium. The low end stands for tighter binding, the high end for weaker binding.

This test deals with T1, human iRhom2, endogenously expressed. Description: indirect FACS scatchard analysis on THP-1 cells. How it is done:
In brief, human THP-1 cells (American Type Culture Collection, USA) were harvested with 10 mM EDTA in PBS, washed and resuspended in FACS buffer (PBS, 3% FBS, 0.05% sodium azide), and seeded in Nunc U-bottom 96-well plates (Thermo Fisher Scientific, USA) at approximately 3×10⁵ cells per well. In order to pellet cells and remove supernatants, the plates were centrifuged at 1,500 rpm and 4° C. for 3 minutes. For primary staining, cells were resuspended in 100 μl per well of either FACS buffer alone (controls) or serial two-fold dilutions (in total 22 concentrations) of the purified antibodies 3, 5, 16, 22, 34, 42, 43, 44, 48, and 50 of the invention in FACS buffer starting at 40 μg/ml and incubated on ice for 1 hour. Afterwards, plates were centrifuged at 1,500 rpm and 4° C. for 3 minutes and washed twice with 200 μl per well of FACS buffer. For secondary staining, cells were spun down and resuspended in 100 μl per well of PE-conjugated goat anti-mouse IgG F(ab′)2 detection fragment (Dianova, Germany) diluted 1:100 in FACS buffer. Protected from light, the cell suspensions were incubated on ice for 1 hour. Plates were then centrifuged at 1,500 rpm and 4° C. for 3 minutes and washed three times with 200 μl per well of FACS buffer. Finally, cells were resuspended in 150 μl per well of FACS buffer and analyzed using a BD Accuri™ C6 Plus flow cytometer (Becton Dickinson, Germany). Applying Prism8 software (GraphPad Sowtware, USA), the respective KD value for each of the antibodies of the invention were calculated.
Take B1: the affinity, expressed as Kd, was 0.34 nM. In other words, the sub-nanomolar range.
The same measure for B2: 2.97 nM; for B3: 3.35 nM.
The molecule B4 showed an equilibrium dissociation constant (Kd) of 1.9 nM.
Turning to B5, binding was characterised by a dissociation constant (Kd) of 4.55 nM.
As to B6, the dissociation constant Kd stood at 0.44 nM. This Kd is about 10-fold lower than that of the molecule before.
For the molecule B7, the equilibrium dissociation constant (Kd) is 2.04 nM.
As to B8, the dissociation constant Kd was found to be 1.73 nM. The Kd values of the last two molecules are within 1.5-fold of each other.
Regarding B9, binding was characterised by a dissociation constant (Kd) of 1.43 nM.
Take B10: the equilibrium dissociation constant (Kd) is 1.94 nM. The Kd values of the last two molecules are within 1.5-fold of each other.
